# Measurements: the nanobody polyreactivity screen of Harvey et al. (2022)
# Experiment: yeast display, Sf9 membrane polyspecificity reagent, FACS + sequencing; frameworks hold sequencing errors
# How it was run: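 After 36–48 hours of galactose induction, yeast (Saccharomyces cerevisiae BJ5465) displaying a synthetic nanobody library were stained at 4 °C for 1 hour with 10% biotinylated, detergent-solubilized Sf9 membrane reagent. Streptavidin microbeads enriched the stained cells before FACS sorting into low and high (top ~1%) gates on anti-HA and streptavidin fluorescence. Each clone's polyreactivity label reflects its gate of origin.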
row,Sequence,polyreactivity (PSR sort gate)
1,QVQVVESGGGLVQAVGSLRLSCAASGSTLSDNAMGWYRQAPGKERELFAAISESGGSTYYADSVKGRFTISRDNAKNTVYLQMNSQKPEDTAVSYCNAVYLSGPFHVSHDYWGQGTQVTVSA,low polyreactivity
2,QVQVVESGGGLVQEVGSLRLSCDASGRSFHHNVMGWYRQAPGKERELVAAISQSGCSTYYADSVKGRFTISRDNAKNTLYLLINSLKPEDSAVYYCNAGAAGRRYNYWGQGTQVTVSS,low polyreactivity
3,QVQVVESGGGLVQPGGSLRLSCAASGFIFFRYDMGWYRQAPGKERELVAAITDDGSTYADSVKGRFTISRDNAKNNVYLQMNSLKPEDTAVYYCNVQSKSSYWWYGYDYWGQGTQVTVSS,low polyreactivity
4,QVRHVESGGGLVQAGGSLRLSCAASGGIFTTYAVGWYREAPGKEWELVARINSRGGRTYYADSVKGRFTISRDNAKYTVYLQMISLKPEDTGVYYCAVRNPRYFNEYDYWGQGTQVTVSS,low polyreactivity
5,QVRLIESGGGLVQAGGSLRLSCAASGFTFFGNAMGWYRQAPGKERELVASISGSGTRTYYADSVKGRFTISRDNAKNTVYLQMNSLKPEDTAVYYCAARGSYSHGINYYWGQGTQVTVSS,high polyreactivity
6,QVRLVESGGCLVQAGGSLRLSCAASGSTFRRYAMGWYRQAPGKERELVAAITVGGGSTYYADSVKGRFTISRDNAKNTVYLQMNSLKPEDTAVYDCSVSRYPYFRYDYWGQGTQVTVSS,high polyreactivity
7,QVRLVESGGGLVQAGGSLRLSCAASGFIFRNNAMGWYRQAPGKERELVAVISFSGGSTYYADSVKGRFTISRDNAKNTVSLQMNSLKPEDTAVYYCTAKGWYYTRRSDYWGQGTQVTVSS,low polyreactivity
8,QVRLVESGGGLVQAGGSLRLSCAASGRIFVGYGLGWYRQAHGKERELVAAITSSGGSTYYADSVKGRFTISRDNAKNTVYLQMNSLKPEDTAVYYCAAERGYHGGVSGLYDYWGQGTQVTVSS,low polyreactivity
9,QVRLVESGGGLVQAGGSLRLSCAASGRILQVYAMGWYRQAPGKERELVAGIRSSGGRTYYADSVKGRFTISRDNAKNTVSLQMNSLKPEDTAVYYCAADQDWYGFVIGFDYWGQGTQVTVSS,low polyreactivity
10,QVRLVESGGGLVQAGGSLRLSCAASGSIFSPYAMGWYRQAPGKERELVAALSYGVGNTYYADSVKGRFTISRDNAKNTVYLQMNSLKPEDTAVYYCAAEEYDYVYPHYFTKGYYWGQGTQVTVSS,high polyreactivity
11,QVRLVESGGGLVQAGGSLRLSCAAYGSTFKTYAMGWYRPAPGKERELVAAISAGGGSTYYADSVKGRFTISRDNAKNTVYLQMNSLKPEDTAVYYCAAAYIYAGWDYEYWGQGTQVTVSS,low polyreactivity
12,QVRLVESGGGLVQAGGSLRLSCADSGSTLDINAMGWYTQAPGKERELVASISWTGGHTYYADSVKGRFTISRDNAKNTVYLQMNSLKPEDTAVYYCAATHQETVYYFLSIFDDWGQGTQVTLSS,low polyreactivity
13,QVRLVESGGGLVQEGGSLRLSCAASGSTFGDYPMGWYRQAPGKERELVAAITLTGGSTYYADSVKGRFTISRDNAKNTVYLQMNSLKPEDTAVYYCNTDVIRWVGGTWHRYYYWGQGTQVTVSS,low polyreactivity
14,QYQLVESGRGLVQAGGSLRLSCAASGSTFRSYAMGWYRQAPGKERDLVAAITSSGGRTYYADSVKGRFTISRDNAKNTVYLQMNSLKPEDTAVYYCAARTYSWGDWGQGTQVTVSS,high polyreactivity
15,RVQHVESGGGLVQAGGSLRLSCAASGYTFEAYAMGWYRPAPGKERELVAAINYSGGSTYADSVKGRFTISRDNAKNNVYLQMHSLKPEDTAVYYCATRLYGYWTYGFDYWGQGTQVTVSS,low polyreactivity
16,RVQLQESGGGLVQAGGSLRLSCAASGTIFIRGDMGWYRQAPGKEREFVATIETGSNTYYADSEKGRFTISRDNAKNAVYLEMNCLKPGDTAVYYCVVDYQLSGRLRYWGQGTQVTLSS,low polyreactivity
17,RVQLQESGGGLVQAGGSLRLSCAASGTIFNRGDMGWYRQAPGKEREFVATIDTGSNTYYADSEKGPFTISRDNAKNAVYLQMNCLKPGATAVYYCVVDYQLSGRLRYWGQGTQVTLSS,low polyreactivity
18,RVQLVESGGGLFHAGGSLRLSCAASGRTFPTYDMGWYRQAPGKERELVAAINWSGGSTYYADSVKGRFTISRDNAKNTVYLQINSLKPEDTAVYYCNAELLRPSTLGVYLARNYWGQGSQVTVSS,low polyreactivity
19,RVQLVESGGGLVHAGCSLRLSCAASGNTFWYNAMGWYRQAPGKVRELVAAISYSGGGTYYADSVKGRFTISRDNAKNTVYLQMNSLKPEDTAVYYCAADTLQRSFVLYDYWGHGTQVTVSS,high polyreactivity
20,RVQLVESGGGLVKAGGSLRLSCAASGSIFYQYTMGWYRQAPGKERELVATISWSDVSTYYADSVKGRFTISRDNAKNTVYLQMNSLKPEDTAVYYCAALYWGWDRYYGYDYWGQGTQVTVSS,low polyreactivity
21,RVQLVESGGGLVQAGGILRLSSAASGSTFPANAMGWYRQAPGKERELVAAITWRAASTYYADSVKGRFTISRDNAKNTVYLQMNSLKPEDTAVYYCARVTNSSAKNTDDYWGQGTQVTVSS,low polyreactivity
22,RVQLVESGGGLVQAGGSLRLSCAASGRIFKYYAMGWYRPAPGTERELVASITIGSTTYADSVKGRFTISRDNAMNTVYLHMNSLKPEDTAVYYCNRVYRQRLGRDYWGQGTQVTVSS,high polyreactivity
23,RVQLVQSGGGLVQAGGSLRLSCAASGRIFSYNAMGWYRQAPGKERELVAAITFSGGGTYYADSVKGRFTISRDNAKNTVYLQMNSLIPEDTAVYYCNKVSYGYSTYGYWGQGTQVTVSS,low polyreactivity
24,VQLVESGGGLVQAGGSLRLSCAACGSTFYPYAMGWYRPAPGKERELVAAISYSGGSTYYADSVKGRFTISRDNAKNTVYLQMNSLKPEDTAVYYCAARYWYKRFVWGDYWGQGTQVTVSS,high polyreactivity
